Assay results published in publication PMC9416875, “Structural basis for non-canonical integrin engagement by Bordetella adenylate cyclase toxin” (Cell reports, 2022).

Target: RTX751 (Bordetella pertussis adenylate cyclase toxin, ACT, residues 751-1,706) (Bordetella pertussis, UniProt P0DKX7)
Test: […], room temperature 20 min; […]; 20 mM Tris pH 7.5, 150 mM NaCl, 1 mM CaCl2, 1 mM MgCl2; […]
Conditions: both partners purified

B1: M1F5 Fab (anti-ACT RTX domain antibody M1F5) (Fab, V domains shown)
VH: QVQLKQSGPELVKPGASVRMSCKGSGYSFTFHNIHWVKQRPGQGLEWIGWIYPGDGNTKYNEKFKGKTTLTVDKSSNTAYMLLSSLTSEDSAIYFCAYGNYYFDQWGQGTTLTVSS
VL: IQMMQSTSSLSASLGDRVTISCSASQGITNYLNWYQQKPDGTVKLLIYYTSSLHSGVPSRFSGSGSGTDYSLTISNLEPEDIATYYCQQYSNLPWTFGGGTKLEIK
notes: also called M1F5 antibody; M1F5 IgG
B1 was tested. Which “stoichiometry N” value did it give?
Its value is 1.
